The source of these data is patent publication US20240424101A1 (CORREGENE BIOTECHNOLOGY, published 2024).

The target of test [1] is HPV16 E7 11-19 epitope (…) presented by HLA-A*02:01 (HPV16; human). The test can be described thus: cell-based or functional assay.
The target in test [2] is T1, HPV16 E7 peptide on HLA-A*02:01 (human).
T1 peptide: YMLDLQPET
The test can be described thus: multimer staining.

B1: CRTE7A2 TCR (variable regions fused to murine constant regions) (TCR, V domains shown)
V domain 1: RKEVEQDPGPFNVPEGATVAFNCTYSNSASQSFFWYRQDCRKEPKLLMSVYSSGNEDGRFTAQLNRASQYISLLIRDSKLSDSATYLCAVISAGTALIFGKGTTLSVSS
V domain 2: DAGVTQSPTHLIKTRGQQVTLRCSPKSGHDTVSWYQQALGQGPQFIFQYYEEEERQRGNFPDRFSGHQFPNYSSELNVNALLLGDSALYLCASSLGWRGGLYTEAFFGQGTRLTVVE
As to B1, the “activation level of the NFAT-GFP reporter gene in Jurkat cells co-incubated with peptide-loaded T2 cells (EC50)” value in test [1] was 31 nM.

B2: CRTE7A2 (TCR, V domains shown)
Valpha: B1 V domain 1
Vbeta: DAGVTQSPTHLIKTRGQQVTLRCSPKSGHDTVSWYQQALGQGPQFIFQYYEEEERQRGNFPDRFSGHQFPNYSSELNVNALLLGDSALYLCASSLGWRGGLYTEAFFGQGTRLTVV
On to B2, for which, in test [2], the binding result was “recognises”.
